Each sequence was assayed on Escherichia coli TOP10 (assay: shrunken log2 fold change of peptide-encoding DNA abundance (4.5 h post-induction vs induction); higher = less antimicrobial activity (less host growth inhibition)). Settings: time post-induction: 4.5 h; library: site-saturation at positions 5, 18, 19, 20.
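Also: peptides expressed intracellularly from a pBAD plasmid library in pooled LB shake-flask culture, induced with 0.3% L-arabinose, DNA abundance read by NGS, three biological replicates, DESeq2 with apeglm shrinkage.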

Sequence | shrunken log2 fold change
RRIRNRPPRLPRPRPRPWSSPRP | -0.0666
RRIRYRPPRLPRPRPRPPHNPRP | -0.275
RRIRRRPPRLPRPRPRPVLDPRP | 0.402
RRIRNRPPRLPRPRPRPINQPRP | -0.14
RRIRDRPPRLPRPRPRPFEPPRP | -0.057
RRIRWRPPRLPRPRPRPHHFPRP | -0.0138
RRIRNRPPRLPRPRPRPVDTPRP | 0.033
RRIRIRPPRLPRPRPRPPFWPRP | 0.288
RRIRCRPPRLPRPRPRPYEEPRP | -0.255
RRIRHRPPRLPRPRPRPFVQPRP | -0.14
RRIRIRPPRLPRPRPRPQDTPRP | -0.048
RRIRVRPPRLPRPRPRPVVKPRP | -0.214
RRIRNRPPRLPRPRPRPDVLPRP | -0.0481
RRIRRRPPRLPRPRPRPEGIPRP | 0.252
RRIRVRPPRLPRPRPRPLSVPRP | -0.0714
RRIRVRPPRLPRPRPRPYQMPRP | -0.34
RRIRIRPPRLPRPRPRPGTGPRP | 0.0659
RRIRDRPPRLPRPRPRPYLPPRP | 0.00286
RRIRPRPPRLPRPRPRPAVQPRP | 0.168
RRIRERPPRLPRPRPRPTPIPRP | 0.244
RRIRRRPPRLPRPRPRPKCWPRP | 0.307
RRIRHRPPRLPRPRPRPGPRPRP | 0.417
RRIRARPPRLPRPRPRPDARPRP | 0.355
RRIRCRPPRLPRPRPRPNYRPRP | -0.077
RRIRPRPPRLPRPRPRPMTGPRP | -0.239

Sequence | shrunken log2 fold change
RRIRYRPPRLPRPRPRPYMTPRP | -0.271
RRIRNRPPRLPRPRPRPHKRPRP | -0.263
RRIRERPPRLPRPRPRPCRDPRP | 0.0284
RRIRLRPPRLPRPRPRPQSCPRP | 0.123
RRIRPRPPRLPRPRPRPLECPRP | -0.000998
RRIRLRPPRLPRPRPRPEWVPRP | 0.36
RRIRLRPPRLPRPRPRPNVAPRP | 0.0405
RRIRWRPPRLPRPRPRPFCQPRP | -0.0441
RRIRIRPPRLPRPRPRPCYYPRP | -0.272
RRIRVRPPRLPRPRPRPEHDPRP | -0.249
RRIRARPPRLPRPRPRPKLEPRP | 0.623
RRIRNRPPRLPRPRPRPYFRPRP | -0.766
RRIRQRPPRLPRPRPRPFFKPRP | -0.132
RRIRQRPPRLPRPRPRPDGAPRP | 0.0271
RRIRKRPPRLPRPRPRPDNNPRP | 0.0165
RRIRMRPPRLPRPRPRPHCEPRP | -0.0828
RRIRLRPPRLPRPRPRPTPHPRP | 0.322
RRIRKRPPRLPRPRPRPQKAPRP | -0.0155
RRIRCRPPRLPRPRPRPKVAPRP | -0.118
RRIRARPPRLPRPRPRPLDGPRP | 0.425
RRIRWRPPRLPRPRPRPFKCPRP | -0.127
RRIRDRPPRLPRPRPRPFVYPRP | -0.344
RRIRTRPPRLPRPRPRPKHAPRP | 0.0369
RRIRIRPPRLPRPRPRPQACPRP | 0.126
RRIRYRPPRLPRPRPRPHTCPRP | -0.191

Sequence | shrunken log2 fold change
RRIRQRPPRLPRPRPRPSHHPRP | 0.0184
RRIRNRPPRLPRPRPRPDHQPRP | 0.113
RRIRKRPPRLPRPRPRPPRSPRP | 2.69
RRIRLRPPRLPRPRPRPYKRPRP | -0.0165
RRIRQRPPRLPRPRPRPKDSPRP | -0.135
RRIRTRPPRLPRPRPRPSLKPRP | -0.359
RRIRARPPRLPRPRPRPHGDPRP | 0.362
RRIRYRPPRLPRPRPRPELSPRP | 0.0544
RRIRERPPRLPRPRPRPPEMPRP | 0.0477
RRIRGRPPRLPRPRPRPNSCPRP | 0.0941
RRIRFRPPRLPRPRPRPCVLPRP | -0.401
RRIRSRPPRLPRPRPRPDREPRP | 0.154
RRIRFRPPRLPRPRPRPMYAPRP | -0.406
RRIRIRPPRLPRPRPRPEVCPRP | 0.503
RRIRMRPPRLPRPRPRPSIFPRP | 0.00177
RRIRVRPPRLPRPRPRPVCMPRP | 0.0454
RRIRPRPPRLPRPRPRPPGFPRP | 0.847
RRIRQRPPRLPRPRPRPRPTPRP | 0.554
RRIRRRPPRLPRPRPRPMTNPRP | -0.00301
RRIRWRPPRLPRPRPRPNRDPRP | -0.00925
RRIRFRPPRLPRPRPRPWTIPRP | -0.238
RRIRRRPPRLPRPRPRPCMLPRP | -0.151
RRIRRRPPRLPRPRPRPEKAPRP | 0.0304
RRIRPRPPRLPRPRPRPEDQPRP | 0.106
RRIRNRPPRLPRPRPRPPSHPRP | -0.301

Sequence | shrunken log2 fold change
RRIRMRPPRLPRPRPRPAECPRP | 0.042
RRIRCRPPRLPRPRPRPIYKPRP | -0.559
RRIRSRPPRLPRPRPRPHCGPRP | -0.0953
RRIRMRPPRLPRPRPRPCESPRP | -0.0088
RRIRHRPPRLPRPRPRPKWQPRP | 0.0671
RRIRERPPRLPRPRPRPMNSPRP | -0.0427
RRIRTRPPRLPRPRPRPIWTPRP | 0.00694
RRIRTRPPRLPRPRPRPNWGPRP | -0.0445
RRIRNRPPRLPRPRPRPNEKPRP | -0.00172
RRIRWRPPRLPRPRPRPGMMPRP | 0.113
RRIRVRPPRLPRPRPRPTLGPRP | 0.213
RRIRTRPPRLPRPRPRPITAPRP | -0.0416
RRIRIRPPRLPRPRPRPQMSPRP | -0.0696
RRIRHRPPRLPRPRPRPQTYPRP | -0.193
RRIRVRPPRLPRPRPRPQDLPRP | -0.0193
RRIRDRPPRLPRPRPRPLWIPRP | -0.421
RRIRQRPPRLPRPRPRPWICPRP | 0.117
RRIRARPPRLPRPRPRPLWVPRP | 0.959
RRIRTRPPRLPRPRPRPGISPRP | 0.0832
RRIRIRPPRLPRPRPRPRMQPRP | -0.199
RRIRIRPPRLPRPRPRPNRWPRP | -0.0394
RRIRVRPPRLPRPRPRPAWNPRP | 0.219
RRIRPRPPRLPRPRPRPYYSPRP | -0.246
RRIRYRPPRLPRPRPRPGMPPRP | -0.403
RRIRVRPPRLPRPRPRPKITPRP | -0.524

Sequence | shrunken log2 fold change
RRIRFRPPRLPRPRPRPYPMPRP | -0.119
RRIRGRPPRLPRPRPRPRILPRP | 0.404
RRIRQRPPRLPRPRPRPCHIPRP | -0.0316
RRIRIRPPRLPRPRPRPKAVPRP | -0.00677
RRIRPRPPRLPRPRPRPARRPRP | 0.374
RRIRGRPPRLPRPRPRPIGTPRP | 0.334
RRIRFRPPRLPRPRPRPMFMPRP | -0.14
RRIRHRPPRLPRPRPRPGVLPRP | 0.0408
RRIRNRPPRLPRPRPRPWYSPRP | -2.32
RRIRCRPPRLPRPRPRPKTMPRP | -0.172
RRIRRRPPRLPRPRPRPSNPPRP | -0.203
RRIRWRPPRLPRPRPRPMSCPRP | -0.256
RRIRRRPPRLPRPRPRPWDWPRP | 0.428
RRIRFRPPRLPRPRPRPNERPRP | 0.047
RRIRNRPPRLPRPRPRPWSHPRP | -0.17
RRIRRRPPRLPRPRPRPRKPPRP | 0.153
RRIRDRPPRLPRPRPRPCPAPRP | -0.156
RRIRTRPPRLPRPRPRPRWDPRP | 0.0818
RRIRWRPPRLPRPRPRPLVWPRP | 0.426
RRIRKRPPRLPRPRPRPHKTPRP | -0.0618
RRIRLRPPRLPRPRPRPKRNPRP | 0.225
RRIRARPPRLPRPRPRPETNPRP | 1.01
RRIRLRPPRLPRPRPRPPEFPRP | 0.0526
RRIRWRPPRLPRPRPRPTTWPRP | 0.297
RRIRERPPRLPRPRPRPHKVPRP | -0.361

Sequence | shrunken log2 fold change
RRIRNRPPRLPRPRPRPNMCPRP | -0.0592
RRIRSRPPRLPRPRPRPHVGPRP | -0.0134
RRIRLRPPRLPRPRPRPGNFPRP | -0.122
RRIRSRPPRLPRPRPRPPHRPRP | 0.182
RRIRMRPPRLPRPRPRPWYTPRP | -0.012
RRIRQRPPRLPRPRPRPSRLPRP | 0.101
RRIRGRPPRLPRPRPRPNYRPRP | 0.0016
RRIRGRPPRLPRPRPRPSQDPRP | 0.296
RRIRIRPPRLPRPRPRPSACPRP | -0.561
RRIRKRPPRLPRPRPRPHKIPRP | 0.134
RRIRARPPRLPRPRPRPRNMPRP | 0.263
RRIRMRPPRLPRPRPRPKGVPRP | 1.1
RRIRHRPPRLPRPRPRPYSLPRP | -0.319
RRIRIRPPRLPRPRPRPSEQPRP | -0.0663
RRIRDRPPRLPRPRPRPADGPRP | -0.00193
RRIRPRPPRLPRPRPRPIQFPRP | -0.145
RRIRERPPRLPRPRPRPSPDPRP | -0.185
RRIRTRPPRLPRPRPRPTTFPRP | -0.012
RRIRARPPRLPRPRPRPWSYPRP | -0.0574
RRIRHRPPRLPRPRPRPNYAPRP | 0.0414
RRIRWRPPRLPRPRPRPKYWPRP | 0.0306
RRIRKRPPRLPRPRPRPPYVPRP | 0.0388
RRIRRRPPRLPRPRPRPEPIPRP | 0.378
RRIRHRPPRLPRPRPRPCTEPRP | -0.138
RRIRERPPRLPRPRPRPKAMPRP | 0.282
